Data on 5 molecules can be found in patent US20030195337A1 (IMMUNEX, published 2003).

The chains are these.
B1: ULBP3, full length, expressed on transfected CV-1 cells (ligand)
chain: DAHSLWYNFTIIHLPRHGQQWCEVQSQVDQKNFLSYDCGSDKVLSMGHLEEQLYATDAWGKQLEMLREVGQRLRLELADTELEDFTPSGPLTLQVRMSCECEADGYIRGSWQFSFDGRKFLLFDSNNRKWTVVHAGARRMKEKWEKDSGLTTFFKMVSMRDCKSWLRDFLMHRKKRLEPTAPPTMAPG
notes: Full length cDNA in pDC409, expressed on CV-1 cells

Assay [1] deals with ULBP4, full length, expressed on transfected CV-1 cells (human) (UniProt Q8TD07). Briefly: flow cytometry; Fc fusion protein on CV-1 cells transfected with full length ULBP; +++ = more than two logs above background. (In general: In flow cytometry, cells or beads pass a laser one at a time.)
In assay [2] the target is ULBP3, full length, expressed on transfected CV-1 cells (human) (UniProt Q9BZM4). The assay is described as above.
Assay [3] has as its target ULBP2, full length, expressed on transfected CV-1 cells (human) (UniProt Q9BZM5). Described as above.
The target of assay [4] is ULBP1, full length, expressed on transfected CV-1 cells (human) (UniProt Q9BZM6). Described as above.
In assay [5] the target is human NK cells (primary, stimulated overnight with recombinant human IL-15) (human). Briefly: flow cytometry; 1 ug protein on about one million IL-15 stimulated human NK cells, labeled anti-human IgG Fc; no protein control = 6.
A further assay has as its target T1, UL16-Fc fusion protein (human cytomegalovirus (HCMV); human, UniProt P16757 27-184; P01857 99-330 = IgG part).
T1 construct: extracellular domain;domain: modified human IgG1 Fc region; Soluble fusion protein prepared as in Cosman et al. 2001
Briefly: flow cytometry; Fc fusion protein on CV-1 cells transfected with full length ULBP, PE anti-human IgG Fc.

The target of assay [6] is B1. Described as above.

A value given as a limit tells only on which side of the number the result lay.

T1 sequence (P16757 27-184, tags or fused parts left off): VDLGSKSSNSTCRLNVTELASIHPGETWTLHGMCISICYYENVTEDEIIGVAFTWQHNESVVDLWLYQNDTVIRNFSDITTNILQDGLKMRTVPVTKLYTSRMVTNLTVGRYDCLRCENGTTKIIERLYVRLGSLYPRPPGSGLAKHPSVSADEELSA
Sequence of ULBP2, full length, expressed on transfected CV-1 cells (human) (Q9BZM5 26-217 limits assumed): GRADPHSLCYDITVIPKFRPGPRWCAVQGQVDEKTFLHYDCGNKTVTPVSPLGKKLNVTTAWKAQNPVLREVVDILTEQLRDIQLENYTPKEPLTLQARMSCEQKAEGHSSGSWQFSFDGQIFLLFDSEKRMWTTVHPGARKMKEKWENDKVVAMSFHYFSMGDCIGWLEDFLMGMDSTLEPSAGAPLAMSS

Regarding “human NKG2D-Fc fusion protein (from UniProt P26718 73-216; P01857 99-330)”, the fluorescence above background (flow cytometry) (logabovebackground) in assay [1], in assay [2], in assay [3] and in assay [4] was more than 2 in each case.
Turning to “ULBP1:Fc fusion protein (from UniProt Q9BZM6 26-216)”, in assay [5], the Mean fluorescence intensity turned out to be 35.
As to B1, the binding result in the assay with UL16-Fc fusion protein is on record as “no binding”.

B2: murine NKG2D-Fc fusion protein (Fc fusion, UniProt O54709 90-232, looked up)
chain: FKETFQPVLCNKEVPVSSREGYCGPCPNNWICHRNNCYQFFNEEKTWNQSQASCLSQNSSLLKIYSKEEQDFLKLVKSYHWMGLVQIPANGSWQWEDGSSLSYNQLTLVEIPKGSCAVYGSSFKAYTEDCANLNTYICMKRAV
notes: extracellular domain; Soluble protein made in CV-1 cells; not shown: hinge and Fc region of a modified human IgG1 (Fc mutein of Baum et al. 1994)
For B2, in assay [6], the binding result is “no binding”.

B3: ULBP4, full length, expressed on transfected CV-1 cells (ligand)
chain: HSLCFNFTIKSLSRPGQPWCEAQVFLNKNLFLQYNSDNNMVKPLGLLGKKVYATSTWGELTQTLGEVGRDLRMLLCDIKPQIKTSDPSTLQVEMFCQREAERCTGASWQFATNGEKSLLFDAMNMTWTVINHEASKIKETWKKDRGLEKYFRKLSKGDCDHWLREFLGHWEAMPEPTVSPVNASDIHWSSSSLPDRWIILGAFILLVLMGIVLICVWWQNGEWQAGLWPLRTS
notes: Full length cDNA in pDC409, expressed on CV-1 cells; The terminus was not determined for the cell-surface form itself
As for B3, in the assay with UL16-Fc fusion protein, the binding result was “no binding”.
